Key:
[1] = molecular target: T1, B7-H4 fusion protein Variant 5: IgC residues 154-259 of SEQ ID NO:1 (human, UniProt Q7Z7D3 154-259); assay: ELISA, B7-H4 Fc fusion protein immobilized at 1 µg/ml, mouse antibody titrated, anti-mouse Ig HRP
T1 construct: Human IgG1 Fc fusion protein; also called IgC only; not shown: human IgG1 Fc
T1 sequence: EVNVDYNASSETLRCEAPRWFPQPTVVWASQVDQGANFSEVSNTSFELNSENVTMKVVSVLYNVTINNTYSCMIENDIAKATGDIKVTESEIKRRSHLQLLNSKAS
Protocol: (§1) 100 μl 1 μg/ml human IgG1 Fc fusion proteins diluted in PBS consisting of different segments of B7-H4 Extracellular domains were immobilized on flat bottom 96 well plates (Costar 9017) overnight at 4° C. […] Plates were washed twice with PBS+0.1% PS-20 and blocked with 200 μl/well PBS 10% FBS at RT for 1 hr. A titration of mouse anti-human B7-H4 antibodies 2H9, 2D1, 2E11, 6H3, 8E11 or H74 diluted in PBS 10% FBS were added to the plates and incubated at RT for 1 hr. Plates were washed three times and 100 μl 1 μg/ml anti-mouse Ig HRP (Sigma) was added to each well and incubated at RT for 1 hr. Plates were washed six times and 100 μl TMB substrate (SurModics) was added to each well for 5-15 mins. 100 μl stop solution (0.1M Sulfuric acid) was added to each well. Plates were read at Absorbance 450 nm by PerkinElmer EnVision 2104 Multilabel Reader.

B7-H4-Ig fusion protein [2] = molecular target: T2, B7-H4-Ig fusion protein (human); assay: ELISA, B7-H4 Ig coated on the plate, purified antibody, HRP goat anti-mouse
T2 construct: also called human B7-H4 Ig
Protocol: B7-H4 Ig was coated onto microtiter plates, washed, blocked, and washed again. Varying concentrations of anti-B7-H4 antibodies were allowed to bind. Purified proteins were used for clones H74, 6H3, and 8E11. Conditioned media from hybridomas 2D1, 2H9, and 2E11 were used. Following incubation, the plates were washed. Bound anti-B7-H4 was detected using HRP-conjugated goat anti-mouse (Jackson ImmunoResearch).

[3] = molecular target: T3, B7-H4 fusion protein Variant 1: IgV residues 29-149 of SEQ ID NO:1 (human, UniProt Q7Z7D3 29-149); assay: ELISA, B7-H4 Fc fusion protein immobilized at 1 µg/ml, mouse antibody titrated, anti-mouse Ig HRP
T3 construct: Human IgG1 Fc fusion protein; also called IgV only; not shown: human IgG1 Fc
T3 chain: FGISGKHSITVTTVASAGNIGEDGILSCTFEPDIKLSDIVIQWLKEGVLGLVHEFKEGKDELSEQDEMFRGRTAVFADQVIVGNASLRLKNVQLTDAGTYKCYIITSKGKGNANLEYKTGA
Protocol: as §1

[4] = molecular target: T4, B7-H4 fusion protein Variant 2: IgV residues 29-154 of SEQ ID NO:1 (human, UniProt Q7Z7D3 29-154); assay: as above
T4 construct: Human IgG1 Fc fusion protein; also called IgV only; not shown: human IgG1 Fc
T4 chain: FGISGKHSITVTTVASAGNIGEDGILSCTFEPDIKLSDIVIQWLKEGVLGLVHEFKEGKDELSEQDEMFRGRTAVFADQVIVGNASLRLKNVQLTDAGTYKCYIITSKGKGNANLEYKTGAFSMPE
Protocol: as §1

[5] = molecular target: T5, B7-H4 fusion protein Variant 3: IgV residues 29-158 of SEQ ID NO:1 (human, UniProt Q7Z7D3 29-158); assay: as above
T5 construct: Human IgG1 Fc fusion protein; also called IgV only; not shown: human IgG1 Fc
T5 chain: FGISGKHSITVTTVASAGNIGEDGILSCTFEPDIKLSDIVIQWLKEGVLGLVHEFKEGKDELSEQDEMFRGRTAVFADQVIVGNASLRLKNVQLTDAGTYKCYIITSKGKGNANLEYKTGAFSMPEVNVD
Protocol: as §1

[6] = molecular target: T6, human B7-H4 expressed on cells (human, UniProt Q7Z7D3 25-282); assay: flow cytometry on HEK293 cells expressing full length human B7-H4, labelled secondary antibody, 20 min at 4 C
T6 construct: the cell line is named under assay or readout; also called full length human B7-H4 on HEK293 cells; 293T.hB7-H4
T6 sequence: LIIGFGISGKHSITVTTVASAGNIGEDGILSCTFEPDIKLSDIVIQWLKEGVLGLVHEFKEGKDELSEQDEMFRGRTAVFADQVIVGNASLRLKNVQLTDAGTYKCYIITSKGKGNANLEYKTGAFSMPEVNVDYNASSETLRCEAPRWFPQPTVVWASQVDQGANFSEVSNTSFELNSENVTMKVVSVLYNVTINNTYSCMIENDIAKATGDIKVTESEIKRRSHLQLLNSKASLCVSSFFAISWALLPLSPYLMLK
Protocol: In order to determine the kinetics of binding of antibody 6H3 binding to B7-H4, with HEK293 cells that expressed full length human B7-H4 were incubated (for 20 minutes at 4° C. with 1×10⁵ in 200 μl wells) in the presence of varying concentrations of antibody (0, 0.01 ng, 0.03 ng, 0.1 ng, 0.3 ng, 1 ng, 10 ng, 30 ng, 100 ng, 300 ng, 1000 ng, 3000 ng, 10000 ng, or 30000 ng) in RPMI complete media (10% FBS). Binding was analyzed (FACS Canto II) using a FACS staining plate after incubation with a secondary antibody (anti-human Ig PE, anti-mouse Ig APC, anti-hamster Ig PE or anti-rat Ig PE).

B7-H4-Ig fusion protein [7] = molecular target: T2, B7-H4-Ig fusion protein; assay: antibody captured on B7-H4-Ig fusion protein, detected with biotin-anti-mouse IgG1 and Europium-Streptavidin
Text: Serum was collected for initial evaluation of PK (peak and trough post 4th dose). Antibody was captured from serum with a B7-H4-Ig fusion protein, and detected with biotin-anti-mouse IgG1 (6H3.mIgG1) or IgG2a (6H3.mIgG2a) and detected with Europium-Streptavidin.

T2 sequence (chain, as listed by the source limits assumed): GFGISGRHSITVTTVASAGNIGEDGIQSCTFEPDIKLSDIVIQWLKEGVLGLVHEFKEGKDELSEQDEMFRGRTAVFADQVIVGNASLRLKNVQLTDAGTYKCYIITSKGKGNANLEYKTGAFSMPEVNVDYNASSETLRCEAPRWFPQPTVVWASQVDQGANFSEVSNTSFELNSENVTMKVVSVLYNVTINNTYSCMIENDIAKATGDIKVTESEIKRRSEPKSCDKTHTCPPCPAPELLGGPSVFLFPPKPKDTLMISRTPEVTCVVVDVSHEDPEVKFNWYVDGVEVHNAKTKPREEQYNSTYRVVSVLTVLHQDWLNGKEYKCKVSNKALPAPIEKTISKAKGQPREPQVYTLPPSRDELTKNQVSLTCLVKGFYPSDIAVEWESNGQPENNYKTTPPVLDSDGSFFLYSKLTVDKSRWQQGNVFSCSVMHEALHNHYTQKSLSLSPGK

B1: anti-human B7-H4 antibody 2D1 (antibody, V domains shown)
VH: EVQLVESGGGLVKPGGSLKLSCAASGFTFNSHGMSWVRQTPEKRLDWVATISDGGTYTYYPVNVKGRFTISRDNAKNNLYLQMSHLKSEDTAMYYCARDGGGGAYWGQGTLVTVSA
VL: DVVMTQTPLSLPVSLGDQASISCRSSHSLVHSNGNTYLHWYLQKPGQSPNLLIYIVSNRFSGVPDRFSGSGSGTDFTLKISRVEAEDLGVYFCSQSTHVPPTFGAGTKLELK
notes: Mouse anti-human B7-H4 antibody; also called clone 2D1
B1: binds [1].

B2: murine anti-human B7-H4 antibody 6H3 (antibody, V domains shown)
VH: EVQLQQSGPVLVKPGTSVKMSCKASGYTFTDYYMNWVKQSHGKSLEWIGVINPYNGDTTYNQKFKGKATLTVDKSSSTAYMEVNSLTFEDSAVYYCARYPESTYWGQGTLVTVSA
VL: DVVMTQTPLSLPVSLGDQASISCRSSQSLVHINGNTYLHWYLQKPGQSPKVLIYKVSNRFSGVPDRFSGSGSGTDFTLKISRVEAEDLGVYFCSQSTHVPLTFGAGTKLELK
notes: Mouse monoclonal antibody; also called clone 6H3; mouse anti-human B7-H4 6H3
For B2, the “EC50 (read off the curve)” value (B7-H4-Ig fusion protein [2]) was ~10 ng/mL, the binding result [3] was “no binding (tested: 16 ng/ml)” and the binding result [4] was “no binding (tested: 16 ng/ml)”. The binding result [5] was “no binding (tested: 16 ng/ml)” and the “EC50 (read off the curve)” value [6] was ~6 nM.

B3: mouse 6H3.m1 (mouse IgG1) (antibody, V domains shown)
VH: EVQLQQSGPVLVKPGTSVKMSCKASGYTFTDYYMNWVKQSHGKSLEWIGVINPYNGDTTYNQKFKGKATLTVDKSSSTAYMEVNSLTFEDSAVYYCARYPESTYWGQGTLVTVSA
VL: DVVMTQTPLSLPVSLGDQASISCRSSQSLVHINGNTYLHWYLQKPGQSPKVLIYKVSNRFSGVPDRFSGSGSGTDFTLKISRVEAEDLGVYFCSQSTHVPLTFGAGTKLELK
notes: 6H3 as mouse IgG1; also called 6H3.mIgG1
B3 was tested, and the “EC50 (read off the curve)” value (B7-H4-Ig fusion protein [7]) was ~10 ng/mL.
